From paper PMC6292215 (Cell reports, 2018)

Target: T1, full-length Human recombinant CHERP with an N-terminal HIS (human, UniProt Q8IWX8 1-916)
T1 sequence: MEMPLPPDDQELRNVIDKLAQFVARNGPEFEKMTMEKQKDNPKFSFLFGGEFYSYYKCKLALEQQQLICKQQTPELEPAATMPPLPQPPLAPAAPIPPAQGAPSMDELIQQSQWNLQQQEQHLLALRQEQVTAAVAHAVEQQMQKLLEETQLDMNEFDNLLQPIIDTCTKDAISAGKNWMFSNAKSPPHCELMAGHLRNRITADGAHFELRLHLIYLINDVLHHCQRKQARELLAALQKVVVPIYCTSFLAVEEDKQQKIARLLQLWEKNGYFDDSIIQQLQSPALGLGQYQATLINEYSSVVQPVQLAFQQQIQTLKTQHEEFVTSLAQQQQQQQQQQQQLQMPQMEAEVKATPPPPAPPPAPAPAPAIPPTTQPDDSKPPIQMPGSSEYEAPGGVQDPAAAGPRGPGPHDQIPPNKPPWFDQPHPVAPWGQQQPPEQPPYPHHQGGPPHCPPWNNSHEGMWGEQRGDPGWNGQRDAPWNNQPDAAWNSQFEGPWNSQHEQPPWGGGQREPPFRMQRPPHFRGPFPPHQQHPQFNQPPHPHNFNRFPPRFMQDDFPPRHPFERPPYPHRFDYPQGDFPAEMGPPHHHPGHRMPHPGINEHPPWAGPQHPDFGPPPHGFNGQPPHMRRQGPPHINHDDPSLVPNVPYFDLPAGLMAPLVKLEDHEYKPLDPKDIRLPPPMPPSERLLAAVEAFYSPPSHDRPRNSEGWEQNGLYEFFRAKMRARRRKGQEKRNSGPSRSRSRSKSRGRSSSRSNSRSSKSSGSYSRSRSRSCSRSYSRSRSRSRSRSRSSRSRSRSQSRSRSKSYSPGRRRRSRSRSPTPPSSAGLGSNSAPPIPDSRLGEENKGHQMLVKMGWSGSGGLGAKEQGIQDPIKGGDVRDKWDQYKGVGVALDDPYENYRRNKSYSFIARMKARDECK
Experiment: pull-down

B1: Full-length Human RBM17 recombinant protein with an N-terminal GST tag (natural protein)
chain: MSLYDDLGVETSDSKTEGWSKNFKLLQSQLQVKKAALTQAKSQRTKQSTVLAPVIDLKRGGSSDDRQIVDTPPHVAAGLKDPVPSGFSAGEVLIPLADEYDPMFPNDYEKVVKRQREERQRQRELERQKEIEEREKRRKDRHEASGFARRPDPDSDEDEDYERERRKRSMGGAAIAPPTSLVEKDKELPRDFPYEEDSRPRSQSSKAAIPPPVYEEQDRPRSPTGPSNSFLANMGGTVAHKIMQKYGFREGQGLGKHEQGLSTALSVEKTSKRGGKIIVGDATEKDASKKSDSNPLTEILKCPTKVVLLRNMVGAGEVDEDLEVETKEECEKYGKVGKCVIFEIPGAPDDEAVRIFLEFERVESAIKAVVDLNGRYFGGRVVKACFYNLDKFRVLDLAEQV
binding result: binds
